This is an account of results in the DeepSol protein solubility set.

The data set in a line: soluble on expression in E. coli; label from the status in PepcDB or PDB records.
“MSLADWQEITGGITAPKGYRAAGITAGLKPSGLPDLALIVSDVEAIASGVFTTSQVKAACVDYCRQRLQAKQSARAILCNAGQANAATGSQGIKDAEESAELLAKELNISPELILLASTGVIGQRIKMDALRNGIPKLIASLTDTGSDAAAGAIITTDLVTKSIALETTIGDRPVRIGGIAKGSGMIHPNMATMLAFVTCDAAVSSHLWQQMLTRAADRSFNSITVDGDTSTNDSLIALANGQSRTPAITEVGAESEKLEAMLTAVCQHLAKAIARDGEGATCLIEVQVTGAHDEQAARQIAKTIAGSSLVKSAIFGRDPNWGRIAAAAGRAGVPFEQENLQIQLGDFLLLDNGQPLPFDRAAASAYLKQAATGAYLQQDTVLISVKVGNGHGTGKAWGCDLSYDYVKINAEYTTEGHHHHHH”: the “soluble on expression in E. coli” value is “soluble”.

Regarding “MHLNANLKYCCLWKLQSPHSCVPMLVWNCSLHPPSQYCSPLFETAVAENINRLSSHCIKKKSIQRGEKMKQTLRLLGAVTLLGITGCQFNQPPVSSIGAWEKPGADFTEIGKALLECGMPTPYDRDPENDNRSFNQMATIDACMLQAGFRYKYDVGGGMVWKS”, the “soluble on expression in E. coli” value is given as “not soluble”.

For the sequence “MKPDAHHVKQFLLRLQDDICQTLSAVDGANFVEDSWRREAGGGGRSRVLRNGGIFEQAGVNFSHVHGDAMPASATAHRPELAGRSFEAMGVSLVVHPHNPYIPTSHANVRFFIAEKPGADPVWWFGGGFDLTPYYGFEEDAVHWHRTARDLCQPFGDDVYPRYKKWCDDYFFLKHRNEQRGVGGLFFDDLNTPDFDHCFDFMQAVGNGYTRAYLPIVERRKAMVWGERERNFQLYRRGRYVEFNLVWDRGTLFGLQTGGRTESILMSMPPLVRWEYDWQPEAGSPEAALSEFIQVRDWILEHHHHHH”, the “soluble on expression in E. coli” value is “soluble”.

As to “MGSDKIHHHHHHMNINSETKYCQTCGIPLDIDYTNLKADQNEEYCDYCLKNGVKLYDFSMDYLIYLWGLFPEEYYKEVGIRHTSSELREIMSRRLPEIKRWKQKINTAHIQYELVIRVQEYINCHLFDDLDSEKLSQIVCISKYHFRRLFKAVCGDSLGNYIQRLRLEYIAFKLISTNVSVSEILSQINYQNKHTLSRAFKNYFNCSIPEFRKRHSNACSEGKNPIQIEPSIERVPHTRIAYLKLERTHHVSHSFSVLWKQVLQFSESYGLLSKGCKYVSLTLDYPFITLEEQSRFMVGVTLPQSFKIPKGFGVYEVPAGEYAIFRFKGLYHELNRVYRYIYLDWLPANDYSLREPFTFETYINTPEKTPVSELITDIYIPVKKKEI”, the “soluble on expression in E. coli” value is listed as “not soluble”.

Regarding “MGSDKIHHHHHHMNILFVSDLGSLGGGETSLFNLINEFASDNKKYNINNFLMCKTEGKLVDKCRGINVPCKVFDFKAAFKSFKFREISKAIKVIKEFLYSNNIDVIQCNEWSSAVLFSIISKVSSKNCKIIWICHGQWYKFNLIKRVLVNSLINRIISVSESVQNNLIINKLNKRKLLKQNLGIDLDRFRLGNGDKLREELHIQKEDKVLGVIARFQPIKGQKLVIEAARDIVEAGYKNYKFLLVGDSIFNNPKDSMYKNEVIEMIKEYKLQKNVLILGERNDVPDILALLDALIVPSINESFGMVVVEAFAAGCPVISTPCDGPMEIIKNGYSGVIINERNSENLKDAITDLMKEETDLEMMKINSMKESKKYDISNIAQFYCKQYALLCK”, the “soluble on expression in E. coli” value is recorded as “not soluble”.

For “MGHHHHHHSHRNLDSRTFITIGDRNFEVEADDLVTISELGRGAYGVVEKVRHAQSGTIMAVKRIRATVNSQEQKRLLMDLDINMRTVDCFYTVTFYGALFREGDVWICMELMDTSLDKFYRKVLDKNMTIPEDILGEIAVSIVRALEHLHSKLSVIHRDVKPSNVLINKEGHVKMCDFGISGYLVDSVAKTMDAGCKPYMAPERINPELNQKGYNVKSDVWSLGITMIEMAILRFPYESWGTPFQQLKQVVEEPSPQLPADRFSPEFVDFTAQCLRKNPAERMSYLELMEHPFF”, the “soluble on expression in E. coli” value was “soluble”.

With “MTNLNYQQTHFVMSAPDIRHLPSDCGIEVAFAGRSNAGKSSALNTLTNQKSLARTSKTPGRTQLINLFEVVDGKRLVDLPGYGYAEVPEEMKRKWQRALGEYLEKRQSLQGLVVLMDIRHPLKDLDQQMIQWAVESNIQVLVLLTKADKLASGARKAQLNMVREAVLAFNGDVQVEAFSSLKKQGVDKLRQKLDSWFSELAPVEEIQDGE”, the “soluble on expression in E. coli” value is “not soluble”.

“MSLKKETLSDRLNKAMELAGMSQGALAKASGVAQPTIWRLTSGNARGSTKIVEIANALGVNSEWLSTGIGPMKKDGTTPINASPSSNTFKIDILDLEVSAGPGVINREFVEILRSVEYSQDDARHMFDGRKAENIRIINVRGDSMSGTIEPGDLLFVDVSIKNFDGDGIYAFLYDDTAHVKRLQKMKDKLLVISDNKSYSAWDPIERDEMNRVFVFGKVIGSMPQTYRKHGEGHHHHHH”: the “soluble on expression in E. coli” value is listed as “soluble”.

In the case of “AIASDKYIGDSHLEETGEEKQDSQEKEAVTPEKAEEQKLKAKYPNLGQKPGGSDFLMKRLQKGQKYFDSGDYNMAKAKIKNKQLPCAGPDKNLVTGDHIPTPQDLPQRKSSLVTSKLAGHVEDLHHV”, the “soluble on expression in E. coli” value is on record as “soluble”.

For “MRFAVLGSGSQGNGTLIASGDTFILVDCGFSLRETERRLALLGVSAAQLSAVLVTHEHADHVHGVGLLSRRYNVPVYLSQGTLRGMRKPVEVAGFLACGQSLHIGSLEVTAARVEHDAYEPLQYVVSDGKRRFGMLTDLGSYDALLLERYQGLDALLIEANHCRDLLARGHYPAFLKQRVGGMQGHLNNHQAARLVHELGWNNLQHLVLAHLSSKNNLPHLARQCFVDTLGCDPDWLQVANQEHGLDWREIALEHHHHHH”, the “soluble on expression in E. coli” value is reported as “soluble”.

Consider “SSKSLKKLVEESREKNQPEVDMSDRGISNMLDVNGLFTLSHITQLVLSHNKLTMVPPNIAELKNLEVLNFFNNQIEELPTQISSLQKLKHLNLGMNRLNTLPRGFGSLPALEVLDLTYNNLSENSLPGNFFYLTTLRALYLSDNDFEILPPDIGKLTKLQILSLRDNDLISLPKEIGELTQLKELHIQGNRLTVLPPELGNLDLTGQKQVFKAENNPWVTPIADQFQLGVSHVFEYIRSETYKYLYGRHMQANPEPPKKNNDKSKKISRKPLAAKNR”, for which the “soluble on expression in E. coli” value is listed as “soluble”.

On to “SMGGPQYGIAREDVVLNRILGEGFFGEVYEGVYTNHKGEKINVAVKTCKKDCTLDNKEKFMSEAVIMKNLDHPHIVKLIGIIEEEPTWIIMELYPYGELGHYLERNKNSLKVLTLVLYSLQICKAMAYLESINCVHRDIAVRNILVASPECVKLGDFGLSRYIEDEDYYKASVTRLPIKWMSPESINFRRFTTASDVWMFAVCMWEILSFGKQPFFWLENKDVIGVLEKGDRLPKPDLCPPVLYTLMTRCWDYDPSDRPRFTELVCSLSDVYQMEKDIAME”, for which the “soluble on expression in E. coli” value is “soluble”.

For the sequence “MAHHHHHHMLSPTPLLQRYRLFHPCRENIPLHMNPAKSMFPLINSNNLLAKPRSNWQDFSGRKEFDEDHPLPVVASRLNERTTQHKWSHWDQYLNPQITQSVRDLTPTPEYVGMRSGHNMIKMGWMKIGGSWKYSRGYNDRRRVFARGQWQERKMTPRFMLAPRVSPGGPRNRYEGKLVFSRLKLSKLLWAIDTGRLNPNEVITVYHLHEAGVVAEGEIVWPGFVLISSGVSRVPYPIHIELQNASAESIRLIEEAGGSFTGVYMTHDGLYQELHPEEYPVFPEQEFPERKGLEGLATNPAKRGWLVRWYEDEGKYAHPEAGRRYSHYVRPPTERDFPATVGEYEMVKHHQKWHLNQPGTGTLLPWHSYNTADLLKRSAGRV”, the “soluble on expression in E. coli” value is on record as “not soluble”.

Regarding “MKIAFIGEAVSGFGGMETVISNVIHTFENSSPKINCEMFFFCRNDKMDKAWLKEIKYAQSFSNIKLSFLRRAKHVYNFSQWLKETSPDIVICIDVISCLYANKARKKSGKHFTIFSWPHFSLDHKKHAECITYADYHLAISSGIKEQIMARGISAQDISVVYNPVSIKTVIVPPPERDKPAVFLYVGRLKFEGQKRVKDLFDGLARTTGEWQLHIIGDGSDFEKCQAYSRELGIEQRVIWYGWQSAPWQVVQQKIKNVTALLLTSAFEGFPMTLLEAMSYGIPCISSDCMSGPRDMIKPGLNGELYTPGAIDDFVGHLNRVISGEVKYQHDIIPGTIERFYDVLYFKNFNNAIFSKLQK”, the “soluble on expression in E. coli” value is on record as “not soluble”.

In the case of “MGSDKIHHHHHHMAIACVNTRASCGVEAPKVTVEVHLSNGLPAFNLVGLPEASVKEARERVRSALINAGFEFPMRRITVNLAPADLPKQGGRYDLPIAVGILAASEQIPANSLKNLEFVGELALSGQIRYCQGLLPAIIAAKRQDNTLILPLENRHDAELVGYQKVFFGSHLQSLAAFLQGQAPLPELDTHLEWVSEEQSYDSSQCLSDVIGQYQAKQALEIAAAGNHNLLMLGPPGTGKTMLASRMMALLPALSYEEALEVAAIHSVAGLDIKPQDFLKRPFRAPHHTSSSISLVGGGSIPKPGEISLAHRGVLFLDEVAEFPRKVLDCLREPMETGEVVISRAAAKLTFLSRFQLIAAMNPSPSGDIDANNRATPDQVQRYLARLSGPFLDRFDLTIEVPKLPAGTLTQAMAPSETSQDVAKRVRRARDIQLARSGVLNSELTGKQLKLFSGLTDADLIFLEQSVVKLGLSVRSFHRIQRVARTIADLEQSPNTERRHLAQALGYRAMDRLLARLSQQY”, the “soluble on expression in E. coli” value is given as “not soluble”.

As for “MGSDKIHHHHHHMRMTTDKKQGKSRELDLFITDLNGNLRGKRLPASGLKKLRKEGLKLPLSVVGFDFWGADVLDNGLVFETGDSDGVCMPVSQEPIPVPWSEAPRDQMLAMMFNPDGTPFGADPRQVLNRMVDRFSAKGLTPVLATELEFYLMDAESESVQRPIPPALADGKGRRLANAEGYSVEEMDGFEAFFADIREACQGQGIGADTIIAEMGPGQFEVNLNHVADPLNAGDQAILFKRLVRGVSRRHGYAATFMAKPYVEESGNGFHTHFSLLDRDGNNVFDDGTEQGSDLLRHAIAGMMQLMPESMLVFAPHLNSYRRFMPGAHAPTHASWGYENRTVALRVPESPNLARRIEHRVAGADANPYLVLASILAGALHGMENALEPDAPVEGDAYAEESPRYPLPCEWQDAIARFEQSEILREYLGEEFVRVYAQAKRQERRRLNERISDVEYEAYLGLL”, the “soluble on expression in E. coli” value is recorded as “not soluble”.

Regarding “MGSDKIHHHHHHMQNQKPSVSLIRATSYEREALKNSLVTLLEPFGGMAAFVKPGQRVLLKPNLLTGARPTKECTTRAELVYAVAQMVIAAGGKPFLGDSPAFGSAKGVAIANGYQPLIQELNLPIIDFHGKRYETVSENFNHLLLSKEVIEADVVINLPKVKSHAQLTLTLGVKNLFGCVPGKMKAWWHMEAGKDADRFGEMLVETARAINPDLTILDGIIGHEGNGPSGGEPRALGILAAASDIFALDRAMVEILNVPPHQVPTVAASQRLRVCPELADVEFPNLHPDLLKIYDWQLPDKLMPIDFAMPRVIKSTFKHFYIRFIKEPMSAYGKQ”, the “soluble on expression in E. coli” value is “not soluble”.

On to “MNNHSNKHWHLQMYLPEGKKGVQIRSEDMLKEPQPVIGTGEWNNRQCQDFKELHIGTIILVREGKKAIALCEVTSGCYTDKELHEKYRHSNFRNVKVLDFIAEKDQPPPRLFSQGTLKSCGEWTHQWEYIDKLISLMDKNNPIEEYSQLKEYAQLLESKKNIILQGAPGTGKTYTTASIAVHMCNKNFTDYTDHSKVIEEYERLRDTGQIAFCTFHQSMDYEDFVEGLKPEVKSNNVEYNVENGIFKSICEQAKTKEEADIITCIDKYLQSIKGYENKKKIPTISGRSDLWVWWIEGNDTISTRSAISKSEKGEQYSLSPLNIEKVKLQAIGEAIENNWRQYAQAFINAVKKEYQLDKQISDKPYVLIIDEINRGNVSKIFGELITLLEADKRSGAGSDSNHCISLILPYSKENFSVPSNLYIIGTMNTTDRSTGTIDYAVRRRFAFVTLKSSDKVIKEYAEKQSVEDNVRDASLALFTQINGNLKNDKESFIAKHKAADFELEDLKVGHSYFMAKDIDMLKMKMRYEVVPLIKEYIKDGILRGMQGDESYFEKWMNAECFHQSEPTTNDN”, for which the “soluble on expression in E. coli” value was “not soluble”.
